In patent US20110008340A1 (published 2011):

T1: TSR6 peptide (human)
T1 construct: Synthetic peptide 'corresponding to TSR6'; also called TSR6 segment of properdin
T1 peptide: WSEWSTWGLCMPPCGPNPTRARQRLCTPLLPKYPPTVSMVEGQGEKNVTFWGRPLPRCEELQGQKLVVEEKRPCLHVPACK

T2: TSR5 peptide (human)
T2 construct: Synthetic peptide 'corresponding to TSR5'; also called TSR5 segment of properdin
T2 peptide: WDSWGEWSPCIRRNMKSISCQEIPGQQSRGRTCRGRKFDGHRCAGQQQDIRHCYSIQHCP


Assays:
TSR6 peptide = target: T1, TSR6 peptide; assay: ELISA on plate-bound peptide
Protocol: (§1) Screening Assay: Microtiter plates were coated with peptide⁷¹⁻¹¹⁰. (2.0 μg/50 μl per well), TSR5 and TSR6 peptides in phosphate buffered saline (PBS) overnight at 4° C. After aspirating the peptide solutions, the wells were blocked with PBS containing 1% bovine serum albumin (BSA) for 2 hours at room temperature. Wells without peptide coating served as background controls. […] The plate was incubated at room temperature for 1-hour. The plate developed using standard ELISA methods described above.

TSR5 peptide = target: T2, TSR5 peptide; assay: ELISA on plate-bound peptide
Protocol: as §1

human C3b = human C3b (human, UniProt P01024 23-667; P01024 749-1663, limits assumed); assay: cell-based or functional assay

| Binder | binding result (TSR6 peptide) | binding result (TSR5 peptide) | IC50 of inhibition of MAC (C5b-9) formation, LPS-coated wells, 10% normal human serum (human C3b) [mg/L] |
| --- | --- | --- | --- |
| MoAb^71-110 (antibody, V domains shown, Mouse monoclonal antibody from a hybridoma; also called MoAbB^71-110; anti properdin antibody clone MoAb^71-110) VH: QVLLQQSAPELARPGASVKMSCTASGYIFTNYPIHWVKQRPGQGLEWIGFIDPGGGYDEPDERFRDRATLTADKSSSTAYMQLSSLTSEDSAIYYCARRGGGYYLDYWGQDTTLTVSA VL: SIVMTQTPKFLLVSAGDRITITCKASQSVNNDVAWYQQKPGQSPKLLIYYASNRYTGVPDRFTGSGYGTDFTFTITTVKAEDLAVYFCQQDYSSPLTFGAGTKLELK | no binding | no binding |  |
| RYRRCVGWNG [Properdin peptide RYRRCVGWNG (99-108)] |  |  | ~50 |
